Results reported in US20150344570A1 (published 2015).

B1: GpH7-B3 variant S298_09D/GpL16-k0 (antibody, human IgG1, kappa)
heavy: not shown
light: DIVMTQSPLSLPVTPGEPASISCQASESLVHSNRNTYLHWYLQKPGQSPQLLIYKVSNRFSGVPDRFSGSGSGTDFTLKISRVEAEDVGVYYCSQNTHVPPTFGQGTKVEIERTVAAPSVFIFPPSDEQLKSGTASVVCLLNNFYPREAKVQWKVDNALQSGNSQESVTEQDSKDSTYSLSSTLTLSKADYEKHKVYACEVTHQGLSSPVTKSFNRGEC
notes: Alteration in both H chains; also called Ho Ab S298_09D
B2: GpH7-A5/GpH7-B3 variant K334_01G/GpL16-k0 (antibody, human IgG1, kappa)
heavy 1: not shown
heavy 2: not shown
light: B1 light
notes: Alteration in one H chain only; also called He Ab K334_01G
B3: GpH7-A5/GpH7-B3 variant K326_06M/GpL16-k0 (antibody, human IgG1, kappa)
heavy 1: not shown
heavy 2: not shown
light: B1 light
notes: Alteration in one H chain only; also called He Ab K326_06M
B4: GpH7-A5/GpH7-B3 variant K334_09D/GpL16-k0 (antibody, human IgG1, kappa)
heavy 1: not shown
heavy 2: not shown
light: B1 light
notes: Alteration in one H chain only; also called He Ab K334_09D
B5: GpH7-A5/GpH7-B3 variant K326_20W/GpL16-k0 (antibody, human IgG1, kappa)
heavy 1: not shown
heavy 2: not shown
light: B1 light
notes: Alteration in one H chain only; also called He Ab K326_20W
B6: GpH7-B3 variant Y296_07I/GpL16-k0 (antibody, human IgG1, kappa)
heavy: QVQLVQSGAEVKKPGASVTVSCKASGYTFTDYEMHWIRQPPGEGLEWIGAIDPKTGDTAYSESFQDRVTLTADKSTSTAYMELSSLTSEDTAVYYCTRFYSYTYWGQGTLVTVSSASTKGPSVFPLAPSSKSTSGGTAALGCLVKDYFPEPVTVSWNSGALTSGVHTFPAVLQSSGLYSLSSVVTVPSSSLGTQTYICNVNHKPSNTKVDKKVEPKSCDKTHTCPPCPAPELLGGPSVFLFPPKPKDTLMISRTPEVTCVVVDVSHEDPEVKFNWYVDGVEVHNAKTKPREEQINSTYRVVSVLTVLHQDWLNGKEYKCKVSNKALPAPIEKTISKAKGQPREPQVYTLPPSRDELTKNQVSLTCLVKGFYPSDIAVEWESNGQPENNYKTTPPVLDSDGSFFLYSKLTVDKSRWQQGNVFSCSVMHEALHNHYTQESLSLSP
light: B1 light
notes: Alteration in both H chains; also called Ho Ab Y296_07I
B7: GpH7-A5/GpH7-B3 variant K326_19Q/GpL16-k0 (antibody, human IgG1, kappa)
heavy 1: not shown
heavy 2: not shown
light: B1 light
notes: Alteration in one H chain only; also called He Ab K326_19Q
B8: GpH7-A5/GpH7-B3 variant K326_03V/GpL16-k0 (antibody, human IgG1, kappa)
heavy 1: not shown
heavy 2: not shown
light: B1 light
notes: Alteration in one H chain only; also called He Ab K326_03V
B9: GpH7-A5/GpH7-B3 variant K334_05P/GpL16-k0 (antibody, human IgG1, kappa)
heavy 1: not shown
heavy 2: not shown
light: B1 light
notes: Alteration in one H chain only; also called He Ab K334_05P
B10: GpH7-B3 variant T335_01G/GpL16-k0 (antibody, human IgG1, kappa)
heavy: not shown
light: B1 light
notes: Alteration in both H chains; also called Ho Ab T335_01G
B11: GpH7-A5/GpH7-B3 variant K326_10E/GpL16-k0 (antibody, human IgG1, kappa)
heavy 1: not shown
heavy 2: not shown
light: B1 light
notes: Alteration in one H chain only; also called He Ab K326_10E
B12: GpH7-B3 variant S337_11K/GpL16-k0 (antibody, human IgG1, kappa)
heavy: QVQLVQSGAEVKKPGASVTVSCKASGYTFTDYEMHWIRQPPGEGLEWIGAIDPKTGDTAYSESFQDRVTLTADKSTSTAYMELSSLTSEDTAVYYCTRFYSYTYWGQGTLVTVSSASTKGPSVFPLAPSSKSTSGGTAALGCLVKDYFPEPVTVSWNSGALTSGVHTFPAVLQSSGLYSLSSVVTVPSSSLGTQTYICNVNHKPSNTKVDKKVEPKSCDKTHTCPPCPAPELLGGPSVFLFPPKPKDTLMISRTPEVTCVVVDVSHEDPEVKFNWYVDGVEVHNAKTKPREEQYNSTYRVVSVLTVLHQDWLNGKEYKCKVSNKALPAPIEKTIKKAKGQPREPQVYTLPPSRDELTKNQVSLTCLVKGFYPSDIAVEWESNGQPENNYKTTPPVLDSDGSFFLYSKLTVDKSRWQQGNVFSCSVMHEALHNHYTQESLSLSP
light: B1 light
notes: Alteration in both H chains; also called Ho Ab S337_11K
B13: GpH7-A5/GpH7-B3 variant K326_07I/GpL16-k0 (antibody, human IgG1, kappa)
heavy 1: not shown
heavy 2: not shown
light: B1 light
notes: Alteration in one H chain only; also called He Ab K326_07I
B14: GpH7-B3 variant Y300_16H/GpL16-k0 (antibody, human IgG1, kappa)
heavy: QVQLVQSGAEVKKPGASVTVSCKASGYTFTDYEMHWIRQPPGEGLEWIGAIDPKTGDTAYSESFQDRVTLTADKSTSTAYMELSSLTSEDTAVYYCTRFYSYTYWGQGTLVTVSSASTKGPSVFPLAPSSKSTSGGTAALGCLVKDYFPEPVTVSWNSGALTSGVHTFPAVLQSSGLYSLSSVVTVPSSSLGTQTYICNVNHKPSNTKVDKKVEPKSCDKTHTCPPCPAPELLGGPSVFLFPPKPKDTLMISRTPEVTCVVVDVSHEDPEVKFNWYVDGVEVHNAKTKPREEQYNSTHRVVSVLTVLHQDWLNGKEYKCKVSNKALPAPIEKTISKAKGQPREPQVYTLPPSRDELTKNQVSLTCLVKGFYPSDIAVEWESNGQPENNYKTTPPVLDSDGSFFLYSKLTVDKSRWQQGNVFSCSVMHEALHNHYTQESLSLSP
light: B1 light
notes: Alteration in both H chains; also called Ho Ab Y300_16H
B15: GpH7-B3 variant T335_13S/GpL16-k0 (antibody, human IgG1, kappa)
heavy: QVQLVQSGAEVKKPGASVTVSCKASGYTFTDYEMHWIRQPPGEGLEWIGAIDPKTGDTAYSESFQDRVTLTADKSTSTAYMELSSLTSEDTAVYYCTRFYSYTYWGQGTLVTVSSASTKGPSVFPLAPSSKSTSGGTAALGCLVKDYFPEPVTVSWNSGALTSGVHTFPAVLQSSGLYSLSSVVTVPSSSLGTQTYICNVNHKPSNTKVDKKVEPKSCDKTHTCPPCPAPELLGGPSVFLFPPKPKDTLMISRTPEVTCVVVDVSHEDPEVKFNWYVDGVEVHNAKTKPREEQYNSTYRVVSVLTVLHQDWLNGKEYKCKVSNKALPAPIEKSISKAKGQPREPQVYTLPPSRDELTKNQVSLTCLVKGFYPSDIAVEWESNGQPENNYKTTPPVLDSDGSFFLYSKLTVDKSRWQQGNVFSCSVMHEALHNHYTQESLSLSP
light: B1 light
notes: Alteration in both H chains; also called Ho Ab T335_13S
B16: GpH7-A5/GpH7-B3 variant L328_15Y/GpL16-k0 (antibody, human IgG1, kappa)
heavy 1: not shown
heavy 2: not shown
light: B1 light
notes: Alteration in one H chain only; also called He Ab L328_15Y
B17: GpH7-A5/GpH7-B3 variant K326_09D/GpL16-k0 (antibody, human IgG1, kappa)
heavy 1: not shown
heavy 2: not shown
light: B1 light
notes: Alteration in one H chain only; also called He Ab K326_09D
B18: GpH7-A5/GpH7-B3 variant K334_15Y/GpL16-k0 (antibody, human IgG1, kappa)
heavy 1: not shown
heavy 2: not shown
light: B1 light
notes: Alteration in one H chain only; also called He Ab K334_15Y
B19: GpH7-B3 variant Y296_08L/GpL16-k0 (antibody, human IgG1, kappa)
heavy: not shown
light: B1 light
notes: Alteration in both H chains; also called Ho Ab Y296_08L
B20: GpH7-A5/GpH7-B3 variant I336_16H/GpL16-k0 (antibody, human IgG1, kappa)
heavy 1: not shown
heavy 2: not shown
light: B1 light
notes: Alteration in one H chain only; also called He Ab I336_16H
B21: GpH7-A5/GpH7-B3 variant K334_19Q/GpL16-k0 (antibody, human IgG1, kappa)
heavy 1: not shown
heavy 2: not shown
light: B1 light
notes: Alteration in one H chain only; also called He Ab K334_19Q
B22: GpH7-B3 variant S337_16H/GpL16-k0 (antibody, human IgG1, kappa)
heavy: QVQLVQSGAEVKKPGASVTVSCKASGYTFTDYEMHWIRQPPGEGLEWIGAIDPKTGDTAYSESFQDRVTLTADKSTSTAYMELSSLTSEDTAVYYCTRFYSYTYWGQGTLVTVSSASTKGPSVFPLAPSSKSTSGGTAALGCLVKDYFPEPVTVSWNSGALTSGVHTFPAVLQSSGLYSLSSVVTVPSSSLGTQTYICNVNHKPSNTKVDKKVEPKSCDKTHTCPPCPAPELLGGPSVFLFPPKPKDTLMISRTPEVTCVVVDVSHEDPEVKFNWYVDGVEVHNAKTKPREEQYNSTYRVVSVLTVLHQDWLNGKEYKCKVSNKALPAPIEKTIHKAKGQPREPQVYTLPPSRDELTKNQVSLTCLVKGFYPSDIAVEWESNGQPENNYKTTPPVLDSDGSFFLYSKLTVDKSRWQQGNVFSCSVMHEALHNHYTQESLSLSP
light: B1 light
notes: Alteration in both H chains; also called Ho Ab S337_16H
B23: GpH7-B3 variant Y300_07I/GpL16-k0 (antibody, human IgG1, kappa)
heavy: not shown
light: B1 light
notes: Alteration in both H chains; also called Ho Ab Y300_07I
B24: GpH7-B3 variant S337_18N/GpL16-k0 (antibody, human IgG1, kappa)
heavy: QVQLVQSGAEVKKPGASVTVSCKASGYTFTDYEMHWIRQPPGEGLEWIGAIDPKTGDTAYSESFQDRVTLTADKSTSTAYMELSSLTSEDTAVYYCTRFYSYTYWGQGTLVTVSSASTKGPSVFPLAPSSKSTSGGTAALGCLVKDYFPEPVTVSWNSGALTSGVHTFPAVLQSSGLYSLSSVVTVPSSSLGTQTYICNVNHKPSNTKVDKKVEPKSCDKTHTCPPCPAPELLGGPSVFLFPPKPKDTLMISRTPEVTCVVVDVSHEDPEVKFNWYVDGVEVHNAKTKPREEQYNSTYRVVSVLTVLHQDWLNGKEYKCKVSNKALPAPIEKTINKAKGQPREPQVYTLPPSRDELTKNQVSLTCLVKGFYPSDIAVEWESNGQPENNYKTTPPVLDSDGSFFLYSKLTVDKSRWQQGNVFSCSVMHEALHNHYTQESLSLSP
light: B1 light
notes: Alteration in both H chains; also called Ho Ab S337_18N
B25: GpH7-A5/GpH7-B3 variant K334_14T/GpL16-k0 (antibody, human IgG1, kappa)
heavy 1: not shown
heavy 2: not shown
light: B1 light
notes: Alteration in one H chain only; also called He Ab K334_14T
B26: GpH7-A5/GpH7-B3 variant K334_03V/GpL16-k0 (antibody, human IgG1, kappa)
heavy 1: not shown
heavy 2: not shown
light: B1 light
notes: Alteration in one H chain only; also called He Ab K334_03V
B27: GpH7-B3 variant S324_09D/GpL16-k0 (antibody, human IgG1, kappa)
heavy: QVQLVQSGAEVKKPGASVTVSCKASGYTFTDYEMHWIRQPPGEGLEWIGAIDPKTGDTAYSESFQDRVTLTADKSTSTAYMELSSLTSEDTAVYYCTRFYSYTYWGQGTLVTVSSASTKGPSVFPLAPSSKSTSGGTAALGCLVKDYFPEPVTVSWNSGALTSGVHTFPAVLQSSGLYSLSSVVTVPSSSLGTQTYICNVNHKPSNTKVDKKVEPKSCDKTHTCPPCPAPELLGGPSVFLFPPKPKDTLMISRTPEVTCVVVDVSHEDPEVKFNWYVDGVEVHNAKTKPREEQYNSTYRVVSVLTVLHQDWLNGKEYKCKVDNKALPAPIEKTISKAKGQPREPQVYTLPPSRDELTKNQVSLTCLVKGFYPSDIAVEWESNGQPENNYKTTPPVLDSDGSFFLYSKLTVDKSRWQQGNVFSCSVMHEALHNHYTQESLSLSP
light: B1 light
notes: Alteration in both H chains; also called Ho Ab S324_09D
B28: GpH7-A5/GpH7-B3 variant K334_16H/GpL16-k0 (antibody, human IgG1, kappa)
heavy 1: not shown
heavy 2: not shown
light: B1 light
notes: Alteration in one H chain only; also called He Ab K334_16H
B29: GpH7-B3 variant Y296_03V/GpL16-k0 (antibody, human IgG1, kappa)
heavy: not shown
light: B1 light
notes: Alteration in both H chains; also called Ho Ab Y296_03V
B30: GpH7-B3 variant S337_14T/GpL16-k0 (antibody, human IgG1, kappa)
heavy: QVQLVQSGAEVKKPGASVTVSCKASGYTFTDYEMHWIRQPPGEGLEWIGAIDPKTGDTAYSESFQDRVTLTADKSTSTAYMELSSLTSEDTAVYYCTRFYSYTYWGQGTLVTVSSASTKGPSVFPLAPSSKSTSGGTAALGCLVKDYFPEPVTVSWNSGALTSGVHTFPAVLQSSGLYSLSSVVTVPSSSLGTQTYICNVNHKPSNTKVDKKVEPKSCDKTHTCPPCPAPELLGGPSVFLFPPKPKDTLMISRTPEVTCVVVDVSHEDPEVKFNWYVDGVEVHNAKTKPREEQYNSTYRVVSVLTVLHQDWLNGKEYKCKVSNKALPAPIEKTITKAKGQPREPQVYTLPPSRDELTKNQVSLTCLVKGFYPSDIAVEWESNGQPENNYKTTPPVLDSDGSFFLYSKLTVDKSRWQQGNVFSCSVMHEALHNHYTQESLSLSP
light: B1 light
notes: Alteration in both H chains; also called Ho Ab S337_14T
B31: GpH7-A5/GpH7-B3 variant K334_08L/GpL16-k0 (antibody, human IgG1, kappa)
heavy 1: not shown
heavy 2: not shown
light: B1 light
notes: Alteration in one H chain only; also called He Ab K334_08L
B32: GpH7-B3 variant T335_02A/GpL16-k0 (antibody, human IgG1, kappa)
heavy: not shown
light: B1 light
notes: Alteration in both H chains; also called Ho Ab T335_02A
B33: GpH7-A5/GpH7-B3 variant K326_04F/GpL16-k0 (antibody, human IgG1, kappa)
heavy 1: not shown
heavy 2: not shown
light: B1 light
notes: Alteration in one H chain only; also called He Ab K326_04F
B34: GpH7-A5/GpH7-B3 variant K334_18N/GpL16-k0 (antibody, human IgG1, kappa)
heavy 1: not shown
heavy 2: not shown
light: B1 light
notes: Alteration in one H chain only; also called He Ab K334_18N
B35: GpH7-A5/GpH7-B3 variant K334_13S/GpL16-k0 (antibody, human IgG1, kappa)
heavy 1: not shown
heavy 2: not shown
light: B1 light
notes: Alteration in one H chain only; also called He Ab K334_13S
B36: GpH7-A5/GpH7-B3 variant P271_08L/GpL16-k0 (antibody, human IgG1, kappa)
heavy 1: not shown
heavy 2: not shown
light: B1 light
notes: Alteration in one H chain only; also called He Ab P271_08L
B37: GpH7-B3 variant Y296_02A/GpL16-k0 (antibody, human IgG1, kappa)
heavy: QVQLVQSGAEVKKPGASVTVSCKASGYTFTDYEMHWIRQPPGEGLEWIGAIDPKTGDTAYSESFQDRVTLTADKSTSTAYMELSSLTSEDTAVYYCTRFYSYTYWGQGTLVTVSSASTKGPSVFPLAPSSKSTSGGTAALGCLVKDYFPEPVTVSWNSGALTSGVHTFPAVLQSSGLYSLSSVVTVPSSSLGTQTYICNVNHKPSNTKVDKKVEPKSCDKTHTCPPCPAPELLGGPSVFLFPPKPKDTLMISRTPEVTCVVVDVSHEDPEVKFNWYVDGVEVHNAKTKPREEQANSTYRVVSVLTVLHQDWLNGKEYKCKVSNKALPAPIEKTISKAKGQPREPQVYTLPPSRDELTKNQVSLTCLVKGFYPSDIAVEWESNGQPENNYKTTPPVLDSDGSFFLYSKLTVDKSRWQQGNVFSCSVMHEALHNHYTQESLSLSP
light: B1 light
notes: Alteration in both H chains; also called Ho Ab Y296_02A
B38: GpH7-A5/GpH7-B3 variant K326_08L/GpL16-k0 (antibody, human IgG1, kappa)
heavy 1: not shown
heavy 2: not shown
light: B1 light
notes: Alteration in one H chain only; also called He Ab K326_08L
B39: GpH7-A5/GpH7-B3 variant I336_15Y/GpL16-k0 (antibody, human IgG1, kappa)
heavy 1: not shown
heavy 2: not shown
light: B1 light
notes: Alteration in one H chain only; also called He Ab I336_15Y
B40: GpH7-B3 variant S324_10E/GpL16-k0 (antibody, human IgG1, kappa)
heavy: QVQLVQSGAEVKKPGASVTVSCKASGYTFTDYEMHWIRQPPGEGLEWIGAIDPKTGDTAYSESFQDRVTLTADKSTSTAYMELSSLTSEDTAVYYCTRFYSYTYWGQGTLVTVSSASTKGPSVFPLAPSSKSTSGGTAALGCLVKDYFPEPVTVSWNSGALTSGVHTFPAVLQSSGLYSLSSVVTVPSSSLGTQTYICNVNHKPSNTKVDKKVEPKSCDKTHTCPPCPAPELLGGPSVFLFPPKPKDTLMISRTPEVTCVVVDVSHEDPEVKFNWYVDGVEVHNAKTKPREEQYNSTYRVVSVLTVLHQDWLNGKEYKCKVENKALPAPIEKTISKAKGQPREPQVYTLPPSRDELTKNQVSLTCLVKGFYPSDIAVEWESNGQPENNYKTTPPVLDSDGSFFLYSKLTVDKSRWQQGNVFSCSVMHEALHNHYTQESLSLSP
light: B1 light
notes: Alteration in both H chains; also called Ho Ab S324_10E
B41: GpH7-A5/GpH7-B3 variant P271_01G/GpL16-k0 (antibody, human IgG1, kappa)
heavy 1: not shown
heavy 2: not shown
light: B1 light
notes: Alteration in one H chain only; also called He Ab P271_01G
B42: GpH7-A5/GpH7-B3 variant K334_02A/GpL16-k0 (antibody, human IgG1, kappa)
heavy 1: not shown
heavy 2: not shown
light: B1 light
notes: Alteration in one H chain only; also called He Ab K334_02A
B43: GpH7-A5/GpH7-B3 variant K334_04F/GpL16-k0 (antibody, human IgG1, kappa)
heavy 1: not shown
heavy 2: not shown
light: B1 light
notes: Alteration in one H chain only; also called He Ab K334_04F
B44: GpH7-A5/GpH7-B3 variant K334_07I/GpL16-k0 (antibody, human IgG1, kappa)
heavy 1: not shown
heavy 2: not shown
light: B1 light
notes: Alteration in one H chain only; also called He Ab K334_07I

How the values were obtained:
FcγRIa [1] = target: T1, FcγRIa (human, UniProt P12314 16-292); assay: SPR (Biacore), relative binding; control HoCon Ab GpH7-B3/GpL16-k0
T1 construct: extracellular domain; also called FcgRI; FcgRIa; not shown: His tag attached to the C terminus
T1 sequence (P12314 16-292): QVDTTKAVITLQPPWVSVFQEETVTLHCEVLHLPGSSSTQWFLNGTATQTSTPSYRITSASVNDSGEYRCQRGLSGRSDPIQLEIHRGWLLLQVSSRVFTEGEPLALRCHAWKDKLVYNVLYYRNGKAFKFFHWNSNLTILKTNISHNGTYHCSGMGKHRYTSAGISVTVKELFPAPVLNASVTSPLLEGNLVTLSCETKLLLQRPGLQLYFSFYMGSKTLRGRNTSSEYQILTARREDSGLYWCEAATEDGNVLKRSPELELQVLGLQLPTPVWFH

FcγRIa [2] = target: T1, FcγRIa; assay: SPR (Biacore), relative binding; control HeCon Ab GpH7-A5/GpH7-B3/GpL16-k0

Binder | Ho/Con_1a (FcγRIa [1]) | He/Con_1a (FcγRIa [2])
B1 | 106 % of control (=100) | 
B2 |  | 104 % of control (=100)
B3 |  | 102 % of control (=100)
B4 |  | 106 % of control (=100)
B5 |  | 103 % of control (=100)
B6 | 106 % of control (=100) | 
B7 |  | 102 % of control (=100)
B8 |  | 102 % of control (=100)
B9 |  | 104 % of control (=100)
B10 | 106 % of control (=100) | 
B11 |  | 104 % of control (=100)
B12 | 105 % of control (=100) | 
B13 |  | 101 % of control (=100)
B14 | 111 % of control (=100) | 
B15 | 105 % of control (=100) | 
B16 |  | 102 % of control (=100)
B17 |  | 103 % of control (=100)
B18 |  | 105 % of control (=100)
B19 | 105 % of control (=100) | 
B20 |  | 101 % of control (=100)
B21 |  | 106 % of control (=100)
B22 | 105 % of control (=100) | 

Binder | Ho/Con_1a (FcγRIa [1]) | He/Con_1a (FcγRIa [2])
B23 | 109 % of control (=100) | 
B24 | 106 % of control (=100) | 
B25 |  | 105 % of control (=100)
B26 |  | 105 % of control (=100)
B27 | 106 % of control (=100) | 
B28 |  | 105 % of control (=100)
B29 | 104 % of control (=100) | 
B30 | 106 % of control (=100) | 
B31 |  | 105 % of control (=100)
B32 | 105 % of control (=100) | 
B33 |  | 102 % of control (=100)
B34 |  | 105 % of control (=100)
B35 |  | 105 % of control (=100)
B36 |  | 102 % of control (=100)
B37 | 103 % of control (=100) | 
B38 |  | 100 % of control (=100)
B39 |  | 103 % of control (=100)
B40 | 106 % of control (=100) | 
B41 |  | 105 % of control (=100)
B42 |  | 106 % of control (=100)
B43 |  | 105 % of control (=100)
B44 |  | 104 % of control (=100)
